Data taken from publication PMC3413214, “Structural and biochemical characterization of a trapped coenzyme A adduct of Caenorhabditis elegans glucosamine-6-phosphate N-acetyltransferase 1” (Acta Crystallographica Section D: Biological Crystallography, 2012).

How the values were obtained:
[1] = target: the molecule itself; experiment: SEC; Superdex 75 26/60 gel-filtration column in buffer A (25 mM Tris-HCl pH 7.5, 250 mM NaCl, 2 mM EDTA); elution profile
[2] = target: the molecule itself; experiment: crystal structure; sitting-drop vapour diffusion, 0.1 M Tris-HCl pH 8.5, 0.2 M sodium acetate, 30% PEG 3350, 11 mM BaCl2, 293 K; orthorhombic P2_1 2_1 2_1 form (1.75 Å, CoA and GlcNAc-6P bound) and hexagonal P6_1 form (1.55 Å, Cys141-CoA adduct); two subunits A and B in each

Protein | stoichiometry N [1] | binding result [2]
Caenorhabditis elegans glucosamine-6-phosphate N-acetyltransferase 1 (enzyme, UniProt Q17427 1-165, looked up, glucosamine-6-phosphate N-acetyltransferase 1 (GNA1) of Caenorhabditis elegans, full length, 165 amino acids per monomer; amplified from C. elegans cosmid B0024 DNA; Cloned into pGEX-6P-1 by BamHI and EcoRI; a few vector residues probably remain at the N-terminus after PreScission cleavage (surmised); In the orthorhombic crystal it holds CoA and GlcNAc-6P non-covalently; also called CeGNA1; GNA1; …) MSHIFDASVLAPHIPSNLPDNFKVRPLAKDDFSKGYVDLLSQLTSVGNLDQEAFEKRFEAMRTSVPNYHIVVIEDSNSQKVVASASLVVEMKFIHGAGSRGRVEDVVVDTEMRRQKLGAVLLKTLVSLGKSLGVYKISLECVPELLPFYSQFGFQDDCNFMTQRF | 2 | –
CeGNA1–Cys–CoA adduct (enzyme, Caenorhabditis elegans, UniProt Q17427 1-165, looked up, Cys141 linked by a disulfide to coenzyme A, glucosamine-6-phosphate N-acetyltransferase 1 (GNA1) of Caenorhabditis elegans, full length, 165 amino acids per monomer; same construct as m1; Same polypeptide as m1; differs only by the covalent CoA on Cys141, which DTT releases; also called CeGNA1–CoA adduct; covalent CoA complex; source: E. coli BL21 (DE3) pLysS, purified; adduct formed in the hexagonal (P6_1) crystals grown with acetyl-CoA, …) MSHIFDASVLAPHIPSNLPDNFKVRPLAKDDFSKGYVDLLSQLTSVGNLDQEAFEKRFEAMRTSVPNYHIVVIEDSNSQKVVASASLVVEMKFIHGAGSRGRVEDVVVDTEMRRQKLGAVLLKTLVSLGKSLGVYKISLECVPELLPFYSQFGFQDDCNFMTQRF | – | binds
